Experimental data as given in patent US20120058906A1 (published 2012).

T1: rHuman Erythropoietin R/Fc Chimera, CF (R&D Systems Cat#963-ER) (human, UniProt P19235 25-250)
T1 construct: Bought Fc chimera; also called EPO R/Fc; Epo R; Fc part of the bought chimera not given
T1 sequence: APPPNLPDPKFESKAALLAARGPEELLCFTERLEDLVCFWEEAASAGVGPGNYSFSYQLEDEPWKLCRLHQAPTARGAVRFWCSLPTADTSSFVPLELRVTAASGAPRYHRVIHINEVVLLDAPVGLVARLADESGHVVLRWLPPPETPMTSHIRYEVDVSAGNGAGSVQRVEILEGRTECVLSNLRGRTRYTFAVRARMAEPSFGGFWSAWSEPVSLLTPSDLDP

T2: rHuman Erythropoietin R/Fc Chimera, CF (R&D Systems Cat#963-ER) (human, UniProt P19235 25-250)
T2 construct: Bought Fc chimera; also called EPO R/Fc; Epo R; not shown: Fc of the bought chimera
T2 sequence: T1 sequence

B1: Fab VH5-51_IGHD5-18*01>3_IGHJ4*01 & V3-4_IGLJ1*01 (Fab, V domains shown)
VH: EVQLVQSGAEVKKPGESLKISCKGSGYSFTSYWIGWVRQMPGKGLEWMGIIYPGDSDTRYSPSFQGQVTISADKSISTAYLQWSSLKASDTAMYYCARRGYSYGYDYFDYWGQGTLVTVSS
VL: QTVVTQEPSFSVSPGGTVTLTCGLSSGSVSTSYYPSWYQQTPGQAPRTLIYSTNTRSSGVPDRFSGSILGNKAALTITGAQADDESDYYCVLYMGSGISYVFGTGTKVTVL
notes: Tested as a Fab made in E. coli; also called IGHV5-51*03
B2: Fab VH1-46_IGHD6-6*01_IGHJ1*01_S102A_S103P_S104F & L6_IGKJ1*01_S28P (Fab, V domains shown)
VH: QVQLVQSGAEVKKPGASVKVSCKASGYTFTSYYMHWVRQAPGQGLEWMGIINPSGGSTSYAQKFQGRVTMTRDTSTSTVYMELSSLRSEDTAVYYCAREEYAPFSAEYFQHWGQGTLVTVSS
VL: EIVLTQSPATLSLSPGERATLSCRASQPVSSYLAWYQQKPGQAPRLLIYDASNRATGIPARFSGSGSGTDFTLTISSLEPEDFAVYYCQQRSNWPPWTFGQGTKVEIKR
notes: Fab

Columns and labels:
[1] = molecular target: T3, rHuman IGF-1 sR (IGF-1 sR), CF (R&D Systems Cat#391-GR) (human, UniProt P08069 31-932); test: ECL (MSD Multi-Spot) binding assay, antigen spotted on plate; Fab 17 nM; blank spot 143
T3 construct: Bought soluble receptor; also called insulin-like growth factor-1 soluble receptor; IGF-R1

[2] = molecular target: T4, rHuman EGF R/Fc Chimera, CF (R&D Systems Cat#344-ER) (human, UniProt P00533 25-645); test: as above
T4 construct: Bought Fc chimera; also called epidermal growth factor receptor; Fc part of the bought chimera not given

[3] = molecular target: T5, rHuman ErbB2/Fc Chimera, CF (R&D Systems Cat#1129-ER) (human, UniProt P04626 23-652); test: as above
T5 construct: Bought Fc chimera; also called HER2/neu; human epidermal growth factor 2 receptor; Fc part of the bought chimera not given

[4] = molecular target: T6, rHuman Notch-1/Fc Chimera, CF (R&D Systems Cat#3647-TK) (human, UniProt P46531 19-526); test: as above
T6 construct: Bought Fc chimera; Fc part of the bought chimera not given

[5] = molecular target: T1, rHuman Erythropoietin R/Fc Chimera, CF …; test: as above
[6] = molecular target: T7, rHuman CD44/Fc Chimera, CF (R&D Systems Cat#3660-CD) (human, UniProt P16070 21-220); test: as above
T7 construct: Bought Fc chimera; Fc part of the bought chimera not given

[7] = molecular target: T8, Recombinant Human DLL4 (R&D Systems Cat#1506-D4/CF) (human, UniProt Q9NR61 27-524); test: as above
T8 construct: Bought recombinant protein; also called delta-like protein 4; rHuman DLL4

[8] = molecular target: T4, rHuman EGF R/Fc Chimera, CF (R&D …); test: ECL (MSD Multi-Spot) binding assay, antigen spotted on plate; Fab 51 nM; blank spot 335
[9] = molecular target: T5, rHuman ErbB2/Fc Chimera, CF (R&D …); test: as above
[10] = molecular target: T7, rHuman CD44/Fc Chimera, CF (R&D Systems …); test: as above
[11] = molecular target: T8, Recombinant Human DLL4 (R&D Systems …); test: as above
[12] = molecular target: T9, rHuman HGF R/c-MET/Fc Chimera, CF (R&D Systems Cat#358-MT/CF) (human, UniProt P08581 25-932); test: ECL (MSD multi-spot), antigen on plate, Fab 2 nM
T9 construct: Bought Fc chimera; also called HGF R/Fc; not shown: Fc of the bought chimera

[13] = molecular target: T10, rHuman Notch-1/Fc Chimera, CF (R&D Systems Cat#3647-TK) (human, UniProt P46531 19-526); test: ECL (MSD multi-spot), antigen on plate, Fab 2 nM
T10 construct: Bought Fc chimera; not shown: Fc of the bought chimera

[14] = molecular target: T11, Recombinant Human DLL4 (R&D Systems Cat#1506-D4/CF) (human, UniProt Q9NR61 27-524); test: ECL (MSD multi-spot), antigen on plate, Fab 2 nM
T11 construct: Bought recombinant protein; also called delta-like protein 4

[15] = molecular target: T12, rHuman EGF R/Fc Chimera, CF (R&D Systems Cat#344-ER) (human, UniProt P00533 25-645); test: ECL (MSD multi-spot), antigen on plate, Fab 2 nM
T12 construct: Bought Fc chimera; also called ErbB-1; not shown: Fc of the bought chimera

[16] = molecular target: T13, rHuman P-Cadherin/Fc Chimera, CF (R&D Systems Cat#861-PC) (human, UniProt P22223 108-654); test: ECL (MSD multi-spot), antigen on plate, Fab 2 nM
T13 construct: Bought Fc chimera; also called CDH3; not shown: Fc of the bought chimera

[17] = molecular target: T2, rHuman Erythropoietin R/Fc Chimera, CF …; test: ECL (MSD multi-spot), antigen on plate, Fab 2 nM
[18] = molecular target: T14, rHuman IGF-1 sR (insulin-like growth factor-1 soluble receptor), CF (R&D Systems Cat#391-GR) (human, UniProt P08069 31-932); test: ECL (MSD multi-spot), antigen on plate, Fab 2 nM
T14 construct: Bought soluble receptor; also called IGF-R1

[19] = molecular target: T15, rHuman ErbB2/Fc Chimera, CF (R&D Systems Cat#1129-ER) (human, UniProt P04626 23-652); test: ECL (MSD multi-spot), antigen on plate, Fab 2 nM
T15 construct: Bought Fc chimera; also called HER2/neu; not shown: Fc of the bought chimera
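Also: blank spot per well as comparator with Hit at signal to blank ratio of 4 or more.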

Binder	ECL signal [1]	ECL signal [2]	ECL signal [3]	ECL signal [4]	ECL signal [5]	ECL signal [6]	ECL signal [7]	ECL signal [8]	ECL signal [9]	ECL signal [10]	ECL signal [11]	ECL signal [12]	ECL signal [13]	ECL signal [14]	ECL signal [15]	ECL signal [16]	ECL signal [17]	ECL signal [18]	ECL signal [19]
B1	872	805	1030	558	620	518	7160	816	1250	651	17000								
B2												255 ECL signal	307 ECL signal	6100 ECL signal	352 ECL signal	223 ECL signal	251 ECL signal	205 ECL signal	176 ECL signal
